Experimental data from patent publication US20250282887A1 (Amgen, published 2025).

T1: human MAGEB6 (human, UniProt Q8N7X4 1-407)
T1 construct: whole, on cells; FFPE cell pellets
T1 sequence (looked up): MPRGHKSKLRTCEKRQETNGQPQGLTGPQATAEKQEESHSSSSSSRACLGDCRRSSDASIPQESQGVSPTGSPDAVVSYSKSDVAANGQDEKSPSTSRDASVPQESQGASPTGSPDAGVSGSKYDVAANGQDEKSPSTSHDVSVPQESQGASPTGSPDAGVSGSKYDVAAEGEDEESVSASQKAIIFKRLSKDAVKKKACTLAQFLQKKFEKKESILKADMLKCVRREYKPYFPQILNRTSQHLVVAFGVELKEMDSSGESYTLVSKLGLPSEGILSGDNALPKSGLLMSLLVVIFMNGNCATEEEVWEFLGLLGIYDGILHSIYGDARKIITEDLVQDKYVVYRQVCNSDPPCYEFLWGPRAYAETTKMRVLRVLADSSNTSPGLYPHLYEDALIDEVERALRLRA

T2: human MAGEA4 (human, UniProt P43358 1-317)
T2 construct: whole, on cells; Transfected into CHO cells with Myc/DDK tags
T2 sequence (looked up): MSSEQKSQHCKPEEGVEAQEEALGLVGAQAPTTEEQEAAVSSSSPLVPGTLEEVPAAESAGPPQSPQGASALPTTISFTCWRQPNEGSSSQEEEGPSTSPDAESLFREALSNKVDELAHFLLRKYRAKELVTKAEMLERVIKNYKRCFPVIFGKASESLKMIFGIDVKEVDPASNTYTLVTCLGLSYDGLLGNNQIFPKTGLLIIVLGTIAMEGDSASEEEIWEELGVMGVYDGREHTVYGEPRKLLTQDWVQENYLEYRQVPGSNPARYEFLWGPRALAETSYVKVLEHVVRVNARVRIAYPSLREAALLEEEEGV


What was measured:
human MAGEA6 = target: T3, human MAGEA6 (human, UniProt P43360 1-314); test: IHC, FFPE CHO cells transfected with human MAGEA6
T3 construct: whole, on cells; FFPE cell pellets
T3 sequence (P43360 whole entry): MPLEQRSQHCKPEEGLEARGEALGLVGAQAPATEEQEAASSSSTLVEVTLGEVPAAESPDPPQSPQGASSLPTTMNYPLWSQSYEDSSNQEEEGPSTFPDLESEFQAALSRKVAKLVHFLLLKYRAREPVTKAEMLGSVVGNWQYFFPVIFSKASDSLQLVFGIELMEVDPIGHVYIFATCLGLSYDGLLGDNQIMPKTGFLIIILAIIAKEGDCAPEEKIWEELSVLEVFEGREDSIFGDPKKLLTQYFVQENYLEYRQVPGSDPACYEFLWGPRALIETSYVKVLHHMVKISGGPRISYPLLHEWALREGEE
Procedure: (§1) FFPE samples were sectioned at 4 μm and mounted on positive charged glass slides. After mounting, paraffin sections were air-dried at room temperature. FFPE TMA samples were received as freshly sectioned and mounted on glass slides. The fully automated IHC assay was performed on a Discovery Ultra Stainer (Ventana Medical Systems, Tucson, AZ) using Ventana Anti-Rabbit HQ (cat #760-4815), Ventana Anti-HQ HRP (cat #760-4820), and Ventana Antibody Diluent with Casein (cat #760-219) (Ventana Medical Systems, Tucson, AZ). The slides were baked on the Discovery Ultra Stainer at 60° C. for 8 minutes, de-paraffinized with Ventana Discovery wash (cat #950-510) for 3 cycles (8 minutes each) at 69° C., and underwent cell conditioning (target retrieval) at 95° C. for 16 minutes (for cell arrays) or 32 minutes (tissues or TMAs) in CC1 buffer (cat #950-500). Following this, slides were incubated with Background Sniper (cat #BS966M, Biocare Medical, Pacheco, CA) in a Ventana Option Prep kit (cat #771-751) for 28 minutes, incubated with CM inhibitor (a part of the Ventana DAB kit cat #760-159) for 12 minutes, and incubated for 1 h at RT with MAGE-B2 antibody diluted with Ventana diluent with Casein in a Ventana Prep kit (cat #770-001) (working concentration at 0.1 μg/ml for cell pellet, or 1-5 ug/ml for tissues) or with a matched concentration of isotype control Rabbit IgG1 antibody. Following this, slides were incubated with the Ventana Anti-Rabbit HQ (cat #760-4815) for 28 minutes at RT, Ventana Anti-HQ HRP (cat #760-4820) for 28 minutes at RT, and signals detected with Ventana DAB chromogen kit (cat #760-159) for 5 minutes at RT. Slides were counterstained with Ventana Hematoxylin II (cat #5266726001) for 8 minutes and Ventana Bluing reagent (cat #526676900) for 4 minutes. Slides were coverslipped and digitized using an Aperio AT2 scanner (Leica Biosystems Inc, Buffalo Grove, IL).

human MAGEB6 = target: T1, human MAGEB6; test: IHC, FFPE CHO cells transfected with human MAGEB6
Procedure: as §1

human MAGEA4 = target: T2, human MAGEA4; test: IHC, FFPE CHO cells transfected with human MAGEA4
From the text: Negative control cells included parental Chinese hamster ovary (CHO) cells, CHO cells stably transfected with mCherry Vector Control (minus Myc/DDK tags), CHO cells stably transfected with mCherry-human DCAF4L2 (plus Myc/DDK tags). The cross-reactivity control cells included CHO cells transfected with mCherry Vector Control (plus Myc/DDK tags) with one of the human MAGE-B or MAGE-A family members (MAGEA1, MAGEA2, MAGEA3, MAGEA4, MAGEA5, MAGEA6, MAGEA8, MAGEA9, MAGEA11, MAGEA12, MAGEB1, MAGEB3, MAGEB4, MAGEB5, MAGEB6, MAGEB10, MAGEB16, MAGEB17, MAGEB18). Positive control cell lines included CHO cells transfected with mCherry Vector (plus Myc/DDK tags) with human MAGE-B2 or CHO cells transfected with mCherry Vector (open reading frame (ORF); minus Myc/DDK tags) with human MAGEB2, and thirteen human cancer cell lines with known endogenous RNA expression level of MAGEB2 (U266B1, T98G, KMM-1, U20S, CFPAC-1, SCaBER, UACC-257, CFPAC-1, VMRC-LCD, NCI-H1703, UM-UC-3, NCI-H1395, NCIH82).
as §1, with “antibody.” for “antibody. Following this, slides were incubated with the Ventana Anti-Rabbit HQ (cat #760-4815) for 28 minutes at RT, Ventana Anti-HQ HRP (cat #760-4820) for 28 minutes at RT, and signals detected with Ventana DAB chromogen kit (cat #760-159) for 5 minutes at RT. Slides were counterstained with Ventana Hematoxylin II (cat #5266726001) for 8 minutes and Ventana Bluing reagent (cat #526676900) for 4 minutes. Slides were coverslipped and digitized using an Aperio AT2 scanner (Leica Biosystems Inc, Buffalo Grove, IL).”

Binder	binding result (human MAGEA6)	binding result (human MAGEB6)	binding result (human MAGEA4)
1C3 (antibody, V domains shown, also called MAGE-B2 (IC3); anti-MAGEB2 antibody 1C3) VH: QSLEESGGGLVQPEGSLTLTCTAFGVTLTNYYICWVRQAPGKGLEWVGCIDNANGRTYYASWAKGRFTISKTSSTTGTLQMTSLTAADTATYFCARSLATPLWGPGTLVTVSS VL: DIVMTQTPSSVEAAVGGTVTIKCQASQNISSYLAWYQQKPGQPPKLLIYRASTLASGVPSRFKGSGSGTQFTLTISDLECADAATYYCQSYDDSRSSNFFYAFGGGTEVVVKG	no binding (tested: 0.1 µg/ml)	no binding (tested: 0.1 µg/ml)	no binding (tested: 0.1 µg/ml)
4G17 (antibody, IgG1, V domains shown, Rabbit monoclonal IgG1; Tested as supernatant and as small batch purified antibody; also called MAGE-B2 (4G17); anti-MAGEB2 antibody 4G17) VH: QSLEESGGGLVQPEGSLTLTCTASGVTLSNYYICWVRQAPGKGLEWIGCIDNVNGRTYYASWAKGRFTISKTSSTTGTLQMTSLTAADTATYFCARSLATPLWGPGTLVTVSS VL: DIVMTQTPASVEAAVGGTVTIKCQASQNIDSYLAWYQQKPGQPPKLLIYRASTLASGVPSRFKGSGSGTEFTLTISDLECADAATYYCQSYDDSRSSSFFYGFGGGTEVVVK	no binding (tested: 0.1 µg/ml)	no binding (tested: 0.1 µg/ml)	no binding (tested: 0.1 µg/ml)

Results, then the binder that gave them:

binding result (human MAGEA6)	binding result (human MAGEB6)	binding result (human MAGEA4)	Binder
no binding (tested: 0.1 µg/ml)	no binding (tested: 0.1 µg/ml)	no binding (tested: 0.1 µg/ml)	1J15 (antibody, IgG1, V domains shown, Rabbit monoclonal IgG1; Tested as supernatant and as small batch purified antibody; also called MAGE-B2 (IJ15); anti-MAGEB2 antibody 1J15) VH: QSLEESGGGLVQPEGSLTLTCTAFGFTLNNYYICWVRQAPGKGLEWIACIDNANGRTYYASWAKGRFTISKTSSTTVTLQMTSLTAADTATYFCARSLSTPLWGPGTLVTVSS VL: DIVMTQTPASVEAAVGGTVTIKCQASQSISSYLSWYQQKPGQPPKLLIYRASTLASGVPSRFRGSGSGTQFTLTISDLECADAATYYCQSYDDSSDNNFFYGFGGGTEVVVR
no binding (tested: 0.1 µg/ml)	no binding (tested: 0.1 µg/ml)	no binding (tested: 0.1 µg/ml)	1I14 (antibody, V domains shown, also called MAGE-B2 (1i14)) VH: QSVEESGGRLVTPGTPLTLTCTISGFSLSSYAMSWVRQAPGKGLEWIGSIGGGGSAVYASWAKGRFTISKTSTTVDLRITSPTTEDTAMYFCGRGFYSIDLWGPGTLVTVSS VL: DVVMTQTPASVEATVGGTVTIKCQSSQSVYDNNALAWYQQNAGQRPRLLIYGASTLASGVPSRFSASGSGTEFTLTISDLECADAATYYCQCTYYVSSYQNDFGGGTEVVVKG
